{"source": "the DeepSol protein solubility set"}
{"experiment": "soluble on expression in E. coli; label from the status in PepcDB or PDB records"}
{"sequence": "MNARKAPEFPAWPQYDDAERNGLVRALEQGQWWRMGGDEVNSFEREFAAHHGAAHALAVTNGTHALELALQVMGVGPGTEVIVPAFTFISSSQAAQRLGAVTVPVDVDAATYNLDPEAVAAAVTPRTKVIMPVHMAGLMADMDALAKISADTGVPLLQDAAHAHGARWQGKRVGELDSIATFSFQNGKLMTAGEGGAVVFPDGETEKYETAFLRHSCGRPRDDRRYFHKIAGSNMRLNEFSASVLRAQLARLDEQIAVRDERWTLLSRLLGAIDGVVPQGGDVRADRNSHYMAMFRIPGLTEERRNALVDRLVEAGLPAFAAFRAIYRTDAFWELGAPDESVDAIARRCPNTDAISSDCVWLHHRVLLAGEPELHATAEIIADAVARA", "soluble on expression in E. coli": "soluble"}
{"sequence": "MAHHHHHHMSYQPPYGYASSPQASPYFPGGNYYSTPPPIPQQQPFQTSPLFGTEQEAVQWFRAVSSSSGGYISVPQLQSALSQGGMNFSYATTERLISMFDANLDGAIDFTEFQELHRYILSMRGGFSQRDTSRDGLLEGNEVRMALSANFYQVDDNTFQTLMRKFDRRKRGSLGFDDYIELSLFVGKANDAFKAQSQGKASATFSFSSFLSAGASLL", "soluble on expression in E. coli": "soluble"}
{"sequence": "MGSDKIHHHHHHMKVTLKTLTPLHIGSGEKYPPCNLVVLKEEENKKTAVRLITRKFLEVLRKHPEIKQNISENISKPLSFKEVENVEDGVFYEVSLYSDFSSGKKNPEIPEVVHHPDGSVYVPGSSLKGAVRLALTWHVLRNNRNLLEEFRRNVQKDLQNHKRAFYQTNEFLNGLFRFAPKEINTDYFRFLRVSDSQTLRTQLVVHDVGIFYVARPNTHPRTFPLEFVPINRDFVFDVRFVKEEYDYFLTHVRKRYGVELPGSIEEIFSIVNEFYSEVFKFERERFKKAKENFEKLDTSKIEERFQKIEKVLQSKKYVLIHIGYGGGLMANSLFILLDEETRKQVRNIIKYHKDDEAPLTRRYLVQSENNSYRVISPIGWCALWLEDSQST", "soluble on expression in E. coli": "not soluble"}
{"sequence": "MGSDKIHHHHHHMNYPTTRLNWPRAWRVIPSRFPAVGLFERVASPDDFDALYALEAMTNDRLRDEVGDISLVPPEERLFGPGSTCIMAAFTHLNPQGSRFSDGSYGVFYCARKRDTAIAETRYHSARFMQATREPPMRLQMRLYSVQARGEAADLRVASKSDPRIVAPDDYSYPQAIGRSLRAAGALGIVYPSVRHSGGGCLAALRTGIVKNCLHAAYLEYNWNGEGIDAVFEVNRVL", "soluble on expression in E. coli": "not soluble"}
{"sequence": "MRTRNMQDFEGPLPDLLESALTWVKQNAPTQNVYDSSGHMRKESVYPLPAVRELIANALVHRDLSPNSDGKWVEIRLCDDRLVISNPGGLRGVSVKQLESATLSKNAVNPRLYDIAKRVRTEGAGIQEVLRQTCQALLAKPQLIDTGVQFTAILYGASVFSEAELEWLRSIGGDGLTAVEKHLLVGLRKGESWHLSRILNEFSPITVAEAEKLMHGLKKRGFIESDNKTFTLGAHSENQAPRVEKEETTLAKITKNAPTIAHALELKPEQSFEELLRTTGLSQGQLRFALDKLQAVGLVVREGGWGVHGTTYHWSAQT", "soluble on expression in E. coli": "not soluble"}
{"sequence": "MNEAEHSVEHPPVQGSHVEGGVVEHPDAKDFGSAAALPADPTWFKHAVFYEVLVRAFFDASADGSGDLRGLIDRLDYLQWLGIDCIWLPPFYDSPLRDGGYDIRDFYKVLPEFGTVDDFVALVDAAHRRGIRIITDLVMNHTSESHPWFQESRRDPDGPYGDYYVWSDTSERYTDARIIFVDTEESNWSFDPVRRQFYWHRFFSHQPDLNYDNPAVQEAMIDVIRFWLGLGIDGFRLDAVPYLFEREGTNCENLPETHAFLKRVRKVVDDEFPGRVLLAEANQWPGDVVEYFGDPNTGGDECHMAFHFPLMPRIFMAVRRESRFPISEIIAQTPPIPDMAQWGIFLRNHDELTLEMVTDEERDYMYAEYAKDPRMKANVGIRRRLAPLLDNDRNQIELFTALLLSLPGSPVLYYGDEIGMGDVIWLGDRDGVRIPMQWTPDRNAGFSTANPGRLYLPPSQDPVYGYQAVNVEAQRDTSTSLLNFTRTMLAVRRRHPAFAVGAFQELGGSNPSVLAYVRQVAGDDGDTVLCVNNLSRFPQPIELDLQQWTNYTPVELTGHVEFPRIGQVPYLLTLPGHGFYWFQLTTHEVGAPPTCGGERRL", "soluble on expression in E. coli": "soluble"}
{"sequence": "MRVSDQVVQKLQGLIEQRHLKQGDRLPAERQLATSLGISRPSLREAIQQLNSLGILASRRGDGTYIQQLPETWSQQLIVEPISNLIEEDPEYRFDVQEARIVLEGGTAWYAALRSTEADRAKIHQCFDEIAYHQLQGDSAAAAVADANFHLAIAEASHNLVLIQMMRSLFDLLQYNVVLGRKKVYNHPVSADQLSEQHFQVMDAIDRQDAQAARDAVCGHIEFVIDHVRSLDEDEARQKRATRLHRIDQT", "soluble on expression in E. coli": "not soluble"}
{"sequence": "MMYPYVRLFMEMRRARRLDPLPVLGTHRSSHRCLPWDLAPWRELNNGRTLTLFDLGRAPLLVRTGMQRICSEKGWGMTVAGSSVRYRRRVVLMERLEMVSRCLGWDGRFFYMEQSLWRKGDCTSHMLLRAATTTGSGIVPPAEVAAALGAGESPPLPDWAQAWIEADALRPWPPAALEHHHHHH", "soluble on expression in E. coli": "not soluble"}
{"sequence": "GPGSMSNIKKVQTEADRLLKKVNEGLDAYDELHEKLANAPNASAKERLEGDLKRELKKLQRHREAMKSFMQNDDYKEKMKMQVSRKKIEERMETFRAIEREMKTKAFSNEGLASAALERADSATEQWLKDAIEEGRKKIELLEYEVQKANNGRVRRGKQQKSEYQIRLENLQTHFFKWESLLRMVNNEELDTDEVDDLQEPIQKVLEDDVDLDVMEDMSIYDSFDIPEPKAKPVVPFDVSDYEDKKVQSPKTTAKAKTPTSTVQAKPSPFITSPKETAASPPAAKAASSTPVPSSMQQPALAQAPQQQLLPPTANSPADDDIGEEEPVPEWMDDDMDTANDDTFGDAAMSGGFTIGSLAEMASATNKVTQDWEKSQKPVGSLEPKTVKVTDPVHGAPEEKRKPTPPVAAPTPNAWERRAAEQQSRQKVQQQQQKQAPEAASPVAPLGPVAAAAEASAPEAVTTSLINPVAATSPSTPAGSANTDPIQPFPPIPGAAPGSKFTPKKIHELLDMSLGNLPHTLDVQRQRPYEPPNAIDAIPYFPQEVLPVLSNKDVYHQMDLDTLFFIFYYHQKSYQQYFAAKELKARSYRYHTKQQRWYQRLERPQTTTETEERGSYTFFDFEDKWDHDRIDDFLFEYKYLENELH", "soluble on expression in E. coli": "soluble"}
{"sequence": "MNFDWQMPRDPFADDPNDPASFIEDDEQAPPLTEAERQHIREDLALVKRFKEALEPRGINGIFFLCEDCDEDHYYDWDIMAANMRATLAGELAPVHEPSVNPNPHAYVPWDYCLGYLDGLEAPRMRFF", "soluble on expression in E. coli": "not soluble"}
{"sequence": "MAYEISKKVLHIVGKTNATYKLIEEGDKILLGLSGGKDSIMLACILARMQKHAPFKFDFKAVTVHYGLGEDLKWLSDLCQEQGIEHEIIYTQIAATINEKRREKSSFCSFCSRLRRGTLYSKALEEGYNKVAIAHHLDDAVESFFMNFTYNGSLRSMPPIYRAENGLLVIRPLIKVREASSIHFVTSQNIPVAPDCNCPAKQPTSDKPPIARLATKNFLKEMQNLHPRFFDSLENAFNNVQANSFSDAKYLDALEHHHHHH", "soluble on expression in E. coli": "soluble"}
{"sequence": "MAKNRFVRDVRLIASTSGDPIDAGQNGELLKSLYYQIAVHCIVLPPLRERKEDILPLAIHFIRQGNERYGLHVEGLGDDVQEAFLAYSWPGNVRELEAVILETMATMEQEQTITLAHLPAPFRAKLAPDETKTDFLFDTEDILPLDKYMEEVEIYYIRKALQHHGFNITKTAKALGLSRQNLQYRIRKYQIDKEWG", "soluble on expression in E. coli": "not soluble"}
{"sequence": "MKIKEVIVVEGKDDTAAIRRAVDADTIETNGAAVGADVIERIKLAKERRGVIIFTDPDFPGEKIRRTIAEQVPGCKHAFLPREAAKAKNGKGIGVEHASPDEIRRALANVYEEASDWKEEITFAELIEAGLIGGAMARRRRQRLGEELKIGYANGRQFHKRLQVFRISRDAFYAALAHVMQEEADDV", "soluble on expression in E. coli": "not soluble"}
